Article PMC4132745

System: HMO1 (Saccharomyces cerevisiae)
Assay: optical tweezers (DNA stretching)
Conditions: Assay buffer, salt, pH and temperature not given in the material (protein stored in 20 mM HEPES pH 7.5, 100 mM KCl, 1 mM EDTA, 1 mM DTT, 5% glycerol)

## bacteriophage lambda DNA
From contour length, omega = 18 +/- 5, n = 26 bp
  Kd: 1.9 nM
From overstretching force, omega = 80 +/- 15, n = 26 bp
  Kd: 2.8 nM
From persistence length, omega = 20 +/- 7, n = 26 bp
  Kd: 2.1 nM
